Columns and labels:
[1] = target: murine TIM-3 extracellular domain protein with hFc tag (mTIM-3-hFc) (mouse) (UniProt Q8VIM0); assay: ELISA, coated mouse TIM-3 ECD protein, 0 nM antibody
[2] = target: TIM-3 protein on human peripheral blood mononuclear lymphocytes (PBMC) (human) (UniProt Q8TDQ0); assay: cell-based or functional assay
[3] = target: monkey TIM-3 extracellular domain protein with hFc tag (cTIM-3-hFc) (monkey); assay: ELISA, coated monkey TIM-3 ECD protein, 0.0667 nM antibody
[4] = target: human TIM-3 extracellular domain protein with hFc tag (hTIM-3-hFc) (human) (UniProt Q8TDQ0); assay: ELISA, coated human TIM-3 ECD protein, 66.667 nM antibody
[5] = target: murine TIM-3 extracellular domain protein with hFc tag (mTIM-3-hFc) (mouse) (UniProt Q8VIM0); assay: ELISA, coated mouse TIM-3 ECD protein, 0.0001 nM antibody
[6] = target: monkey TIM-3 extracellular domain protein with hFc tag (cTIM-3-hFc) (monkey); assay: ELISA, coated monkey TIM-3 ECD protein, 0.6667 nM antibody
[7] = target: human TIM-3 extracellular domain protein with hFc tag (hTIM-3-hFc) (human) (UniProt Q8TDQ0); assay: ELISA, coated human TIM-3 ECD protein, 0.6667 nM antibody
[8] = target: murine TIM-3 extracellular domain protein with hFc tag (mTIM-3-hFc) (mouse) (UniProt Q8VIM0); assay: ELISA, coated mouse TIM-3 ECD protein, 6.6667 nM antibody
[9] = target: human TIM-3 extracellular domain protein with hFc tag (hTIM-3-hFc) (human) (UniProt Q8TDQ0); assay: FACS, blocking of hTIM-3-hFc binding to phosphatidylserine on apoptotic Jurkat cells, 200 nM antibody
[10] = target: monkey TIM-3 on CHOK1 stable cell line (CHOK1-cTIM-3) (monkey); assay: FACS, CHOK1-cTIM-3 cells, 40 nM antibody
[11] = target: human TIM-3 extracellular domain protein with hFc tag (hTIM-3-hFc) (human) (UniProt Q8TDQ0); assay: ELISA, coated human TIM-3 ECD protein, 0 nM antibody
[12] = target: monkey TIM-3 on CHOK1 stable cell line (CHOK1-cTIM-3) (monkey); assay: FACS, CHOK1-cTIM-3 cells, 0.064 nM antibody
[13] = target: human TIM-3 extracellular domain protein with hFc tag (hTIM-3-hFc) (human) (UniProt Q8TDQ0); assay: FACS, blocking of hTIM-3-hFc binding to phosphatidylserine on apoptotic Jurkat cells, 0 nM antibody
[14] = target: human TIM-3 extracellular domain protein with hFc tag (hTIM-3-hFc) (human) (UniProt Q8TDQ0); assay: FACS, blocking of hTIM-3-hFc binding to phosphatidylserine on apoptotic Jurkat cells, 66.667 nM antibody
[15] = target: human TIM-3 extracellular domain protein with hFc tag (hTIM-3-hFc) (human) (UniProt Q8TDQ0); assay: ELISA, coated human TIM-3 ECD protein, 0.0067 nM antibody
[16] = target: human TIM-3 on CHOK1 stable cell line (CHOK1-hTIM-3) (human) (UniProt Q8TDQ0); assay: FACS, CHOK1-hTIM-3 cells, 0.064 nM antibody
human TIM-3 on CHOK1 stable cell line (CHOK1-hTIM-3) (human), sequence (Q8TDQ0 22-301 limits assumed): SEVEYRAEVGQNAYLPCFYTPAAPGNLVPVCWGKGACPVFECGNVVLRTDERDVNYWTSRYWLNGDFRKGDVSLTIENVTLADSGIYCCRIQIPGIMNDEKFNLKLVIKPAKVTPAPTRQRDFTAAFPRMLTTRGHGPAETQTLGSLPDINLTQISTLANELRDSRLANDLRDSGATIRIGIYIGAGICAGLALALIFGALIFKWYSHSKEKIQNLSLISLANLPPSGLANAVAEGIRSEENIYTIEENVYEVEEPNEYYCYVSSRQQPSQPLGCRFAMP

TIM-3 protein on human peripheral blood mononuclear lymphocytes (PBMC) (human), sequence (Q8TDQ0 22-301 limits assumed): as above
murine TIM-3 extracellular domain protein with hFc tag (mTIM-3-hFc) (mouse), sequence (Q8VIM0 other isoform, or with tags, fused parts or gaps): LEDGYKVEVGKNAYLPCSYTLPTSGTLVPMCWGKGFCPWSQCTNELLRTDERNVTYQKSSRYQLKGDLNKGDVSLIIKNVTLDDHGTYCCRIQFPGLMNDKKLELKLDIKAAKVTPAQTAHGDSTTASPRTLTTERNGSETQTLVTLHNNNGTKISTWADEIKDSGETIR
human TIM-3 extracellular domain protein with hFc tag (hTIM-3-hFc) (human), sequence (Q8TDQ0 22-200): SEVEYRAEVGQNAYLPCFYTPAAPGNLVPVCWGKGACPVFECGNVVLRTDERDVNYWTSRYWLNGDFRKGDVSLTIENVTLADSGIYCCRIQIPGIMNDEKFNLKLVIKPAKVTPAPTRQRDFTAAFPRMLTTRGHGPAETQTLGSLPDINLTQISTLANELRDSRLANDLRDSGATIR
monkey TIM-3 extracellular domain protein with hFc tag (cTIM-3-hFc) (monkey), sequence (chain, as listed by the source): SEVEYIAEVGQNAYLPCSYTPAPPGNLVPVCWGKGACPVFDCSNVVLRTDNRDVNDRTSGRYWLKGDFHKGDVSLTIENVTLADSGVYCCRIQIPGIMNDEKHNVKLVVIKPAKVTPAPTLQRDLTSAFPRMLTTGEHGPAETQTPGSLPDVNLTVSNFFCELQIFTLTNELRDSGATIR
monkey TIM-3 on CHOK1 stable cell line (CHOK1-cTIM-3) (monkey), sequence (chain, as listed by the source limits assumed): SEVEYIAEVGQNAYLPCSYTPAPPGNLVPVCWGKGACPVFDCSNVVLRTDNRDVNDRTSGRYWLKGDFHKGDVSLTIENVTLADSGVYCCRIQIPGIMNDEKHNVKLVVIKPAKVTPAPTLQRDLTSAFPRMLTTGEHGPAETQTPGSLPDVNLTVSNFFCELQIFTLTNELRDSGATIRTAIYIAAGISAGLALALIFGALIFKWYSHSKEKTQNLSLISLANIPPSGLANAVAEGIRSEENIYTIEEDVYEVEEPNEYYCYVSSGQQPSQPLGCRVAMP

human IgG control (antibody)
OD450 [1]: 0.23
IFN-γ production (donor X); antibody 0.1 µg/ml, N = 1 [2]: 2040 pg/mL
IFN-γ production (donor X); antibody 0.1 µg/ml, N = 2 [2]: 2060 pg/mL
IFN-γ production (donor X); antibody 1 µg/ml, N = 1 [2]: 2090 pg/mL
IFN-γ production (donor X); antibody 1 µg/ml, N = 2 [2]: 2070 pg/mL
IFN-γ production (donor X); antibody 10 µg/ml, N = 1 [2]: 2030 pg/mL
IFN-γ production (donor X); antibody 10 µg/ml, N = 2 [2]: 2020 pg/mL
IFN-γ production (donor X); antibody '0' (4th head as printed), N = 1 [2]: 2260 pg/mL
IFN-γ production (donor X); antibody '0' (4th head as printed), N = 2 [2]: 1900 pg/mL
IFN-γ production (donor X); antibody '0' (5th head as printed), N = 1 [2]: 2000 pg/mL
IFN-γ production (donor X); antibody '0' (5th head as printed), N = 2 [2]: 2320 pg/mL
OD450 [3]: 0.13
OD450 [4]: 0.14
OD450 [5]: 0.22
OD450 [6]: 0.15
OD450 [7]: 0.07
OD450 [8]: 0.3
Inhibition ratio (%) [9]: -7.8%
Mean fluorescence intensity [10]: 6
OD450 [11]: 0.07
Mean fluorescence intensity [12]: 2.9
Inhibition ratio (%) [13]: -2.5%
Inhibition ratio (%) [14]: 9.6%
OD450 [15]: 0.07
Mean fluorescence intensity [16]: 2.8
